# Experimental data from patent US20240084003A1 (SIMCERE ZAIMING PHARMACEUTICAL, published 2024).
# Where a chain is given by its changes, count along the chain named.
# T1: human CD22-ECD-His protein (human, UniProt P20273 20-687)
# T1 construct: Made in house in HEK293E; also called hCD22-ECD-His; recombinant human CD22-ECD His protein; not shown: His tag
# T1 sequence: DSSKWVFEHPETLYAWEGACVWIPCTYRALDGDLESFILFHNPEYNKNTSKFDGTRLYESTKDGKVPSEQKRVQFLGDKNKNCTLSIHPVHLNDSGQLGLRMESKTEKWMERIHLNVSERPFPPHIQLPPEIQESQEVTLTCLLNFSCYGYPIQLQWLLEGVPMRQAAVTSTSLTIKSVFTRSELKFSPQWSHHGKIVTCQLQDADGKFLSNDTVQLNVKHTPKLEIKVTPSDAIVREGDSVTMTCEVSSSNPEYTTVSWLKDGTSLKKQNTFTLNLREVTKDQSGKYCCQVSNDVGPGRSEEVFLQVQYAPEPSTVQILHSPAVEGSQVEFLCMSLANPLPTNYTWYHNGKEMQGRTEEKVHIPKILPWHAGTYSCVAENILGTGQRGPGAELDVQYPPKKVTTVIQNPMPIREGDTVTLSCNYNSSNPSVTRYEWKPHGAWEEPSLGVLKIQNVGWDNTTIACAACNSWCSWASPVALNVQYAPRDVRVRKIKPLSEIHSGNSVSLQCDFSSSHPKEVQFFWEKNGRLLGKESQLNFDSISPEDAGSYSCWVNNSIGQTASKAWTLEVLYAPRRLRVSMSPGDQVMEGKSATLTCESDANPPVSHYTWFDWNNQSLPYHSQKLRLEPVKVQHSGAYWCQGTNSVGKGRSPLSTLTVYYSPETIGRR
# T2: human CD22 domain5-7-His (human, UniProt P20273 414-687)
# T2 construct: also called hCD22 domain5-7-His; not shown: His tag
# T2 sequence: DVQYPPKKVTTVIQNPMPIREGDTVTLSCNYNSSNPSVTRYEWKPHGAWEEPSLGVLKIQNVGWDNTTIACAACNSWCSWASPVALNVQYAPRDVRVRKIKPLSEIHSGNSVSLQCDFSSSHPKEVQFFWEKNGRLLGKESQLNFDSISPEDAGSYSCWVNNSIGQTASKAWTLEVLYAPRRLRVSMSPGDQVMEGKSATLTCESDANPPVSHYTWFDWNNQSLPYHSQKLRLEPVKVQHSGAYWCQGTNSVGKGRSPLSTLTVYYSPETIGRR
# T3: human CD22 domain1-4-His (human, UniProt P20273 20-425)
# T3 construct: also called hCD22 domain1-4-His; not shown: His tag
# T3 sequence: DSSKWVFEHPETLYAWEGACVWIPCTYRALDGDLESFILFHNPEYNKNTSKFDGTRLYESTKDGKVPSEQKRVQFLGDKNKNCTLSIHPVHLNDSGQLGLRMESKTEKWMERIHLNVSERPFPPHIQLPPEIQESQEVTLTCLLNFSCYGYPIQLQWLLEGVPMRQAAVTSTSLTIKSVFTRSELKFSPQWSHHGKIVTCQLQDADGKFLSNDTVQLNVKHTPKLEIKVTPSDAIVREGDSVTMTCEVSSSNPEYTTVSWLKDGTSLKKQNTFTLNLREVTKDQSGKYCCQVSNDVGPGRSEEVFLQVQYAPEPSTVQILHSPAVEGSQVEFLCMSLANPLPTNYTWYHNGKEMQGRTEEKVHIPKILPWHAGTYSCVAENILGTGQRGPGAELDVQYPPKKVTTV
# T4: murine CD22 protein (ACROBiosystems, SI2-M52Ha) (murine, UniProt P35329 22-708)
# T4 construct: extracellular domain; also called murine CD22-ECD; murine CD22-ECD-His
# T4 sequence (looked up): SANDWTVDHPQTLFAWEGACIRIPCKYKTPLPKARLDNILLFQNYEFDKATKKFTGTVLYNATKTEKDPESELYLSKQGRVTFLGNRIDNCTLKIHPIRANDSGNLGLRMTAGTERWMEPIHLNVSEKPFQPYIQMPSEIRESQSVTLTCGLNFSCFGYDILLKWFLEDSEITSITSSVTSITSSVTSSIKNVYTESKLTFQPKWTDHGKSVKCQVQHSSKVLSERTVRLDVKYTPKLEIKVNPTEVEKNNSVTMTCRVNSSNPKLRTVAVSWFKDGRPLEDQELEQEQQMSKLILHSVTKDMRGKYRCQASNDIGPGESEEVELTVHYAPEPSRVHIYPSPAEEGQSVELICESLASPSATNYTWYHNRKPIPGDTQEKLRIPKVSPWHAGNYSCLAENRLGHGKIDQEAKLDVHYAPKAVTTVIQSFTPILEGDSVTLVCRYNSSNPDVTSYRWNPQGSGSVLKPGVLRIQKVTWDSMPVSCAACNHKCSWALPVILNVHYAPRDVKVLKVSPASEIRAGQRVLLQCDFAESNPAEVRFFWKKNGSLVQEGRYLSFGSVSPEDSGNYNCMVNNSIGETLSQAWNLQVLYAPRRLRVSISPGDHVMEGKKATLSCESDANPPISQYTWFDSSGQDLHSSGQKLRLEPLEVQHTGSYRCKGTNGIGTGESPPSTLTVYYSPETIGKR
# B1: F1.267.9 (antibody, human IgG1, kappa, V domains shown)
# VH: EVQLQQSGPVLVKPGASVKMSCKASGYTFTDFYMNWAKQSHGKSLEWVGVINPYNGGINYNQKFKGKATLTVDKSSSTAYMEFNSLTSEDSAVYYCARRMEYHAMDYWGQGTSVTVSS
# VL: DIVLTQSPASLAVSLGQRATISCRASESVDNYGFDFIHWYQQKPGQPPKLLIYRASNLESGIPARFSGSGSRPDFTLTINPVETDDVATYYCQQSIKDPWTFGGGTKLEIKR
# notes: Human-murine chimeric IgG1, kappa
# B2: F1.7.6 (antibody, human IgG1, kappa, V domains shown)
# VH: EIQLQQSGPELVKPGTSVKVSCKASGYDFTRYNMYWVKQSHGKSLEWIGYIDPYNGDTRYNQKFKGKATLTVDKSSSTAYMHLNSLTSEDSAVYYCEAIYYDMEGYALDYWGQGTSVTVSS
# VL: DIVMSQSPSSLAVSVGEKVTMSCKSSQSLLYSNNQKNYLAWYQQKPGQSPKKLIYWASTRESGVPDRLTGSGSGTDFTLTISSVTAEDLAVYYCQQFYSYPWTFGGGTKLEIKR
# notes: as for B1
# B3: F2.99.1 (antibody, human IgG1, lambda, V domains shown)
# VH: QVTLKESGPGILQPSQTLSLTCSFSGFSLSTFPMGVGWIRQPSGKGLEWLAHIWWDDDEYYNPVLKSRLTISKDTSKKQVYLRIANVDTVDTATYYCTRANWDRWYFDVWGTGTTVTVSS
# VL: QLVLTQSSSASFSLGASAKLTCTLSRQHSAYTIEWYQQQPLKPPKYVMEVKKDGSHSTGDGIPDRFSGSSSGADRYLSISNIQPEDEAIYICGVGDTIKEHFVFGGGTKVTVLG
# notes: Human-murine chimeric IgG1, lambda
# B4: F2.127.11 (antibody, human IgG1, lambda, V domains shown)
# VH: QVTLKESGPGILQPSQTLSLTCSFSGFSLSTFGMGVGWIRQPSGKGLEWLAHIWWDDDKHYNPALKSRLTISKDTSRNQVFLKIANVDTADGATYFCARDNWVSSLDYWGQGTSVIVSS
# VL: QPVITQSSSASFSLGASAELTCTLSSQHSTYTIEWYQQQPLKPPKYVMGLKKDGSHSTGDGIPDRFSGSSSGADRYLSISNIQPEDEAIYICGVSDTIKEQFVYVFGGGTKVTVLG
# notes: as for B3
# B5: F2.42.9 (antibody, human IgG1, lambda, V domains shown)
# VH: QVTLKESGPGILQPSQTLSLTCSFSGFSLSTFDRGVGWIRQPSGKGLEWLAHIWWNDKKFYNPVLKSRLTISKDTSKNQVFLTIANVDSADTATYSCARIVWDKYYFDYWGQGIPLTVSS
# VL: B3 VL with R26S, Y46F, E49D, V50L, D64A, S78T, H101Q, F102Y
# notes: as for B3
# B6: F1.192.1 (antibody, human IgG1, kappa, V domains shown)
# VH: AVQLQQSGVELVRPGASVKLSCTGSDFNIKEDYIHWVKQRPEQGLEWIGWIDPENGDTEYASKFQGKATITADTSSNTAYLQLSSLTSEDTAVYYCATYGSLDYWGQGTTLTVSS
# VL: DIKMTQSPSSMYAFLGERVTITCKASQGINSFLTWFQQKPGKSPKTLIYRANRLVDGVPSRFSGSGSGQDYSLTISSLEYEDVGIYYCLQYDEFPRTFGGGTKLEIKR
# notes: as for B1
# What was measured:
# [1] = biological target: T1, human CD22-ECD-His protein; assay: ELISA, Ab 100.00 nM
# Experimental: (§1) In order to detect the binding activity of CD22 human-murine chimeric antibodies to CD22 protein, the purified human CD22-ECD-His protein obtained in Example 2 was diluted with PBS to a final concentration of 2 μg/mL, and then added to 96-well ELISA plate at 100 μl/well. The plate was sealed with plastic film and incubated overnight at 4° C., the plate was washed 2 times with PBS the next day, and then a blocking solution [PBS+2% (w/w) BSA] was added for blocking at room temperature for 2 hours. […] After incubation at 37° C. for 2 hours, the plate was washed 3 times with PBS. HRP (horseradish peroxidase)-labeled secondary antibody (purchased from Sigma, catalog number: A0170) was added, and incubated at 37° C. for 2 hours, and the plate was washed 5 times with PBS. TMB substrate was added at 50 μl/well, and incubated at room temperature for 30 minutes, then a stop solution (1.0 N HCl) was added at 50 μl/well.
# [2] = biological target: T1, human CD22-ECD-His protein; assay: ELISA, human CD22-ECD-His coated
# Experimental: as §1
# [3] = biological target: T1, human CD22-ECD-His protein; assay: ELISA, Ab 10.00 nM
# Experimental: as §1
# [4] = biological target: T1, human CD22-ECD-His protein; assay: ELISA, Ab 0.01 nM
# Experimental: as §1
# [5] = biological target: T1, human CD22-ECD-His protein; assay: ELISA, Ab 0.001 nM
# Experimental: as §1
# human CD22 domain5-7-His = biological target: T2, human CD22 domain5-7-His; assay: ELISA, human CD22 domain5-7-His coated
# human CD22 domain1-4-His = biological target: T3, human CD22 domain1-4-His; assay: ELISA, human CD22 domain1-4-His coated
# [6] = biological target: T1, human CD22-ECD-His protein; assay: ELISA, Ab 0.0001 nM
# Experimental: as §1
# [7] = biological target: T4, murine CD22 protein (ACROBiosystems, …); assay: ELISA, murine CD22-ECD-His coated
# Experimental: as §1
# In order to detect the species cross-binding activity of the chimeric antibodies, an ELISA plate was coated with commercial murine CD22 protein (ACROBiosystems, catalog number: SI2-M52Ha) and monkey CD22 protein (ACROBiosystems, catalog number: SI2-R52Ha), respectively, and the ELISA detection was performed according to the method in Example 5.1.
# [8] = biological target: T1, human CD22-ECD-His protein; assay: ELISA, Ab 0.00001 nM
# Experimental: as §1
# [9] = biological target: T1, human CD22-ECD-His protein; assay: ELISA, Ab 0.10 nM
# Experimental: as §1
Binder,OD450 [1] [OD450],EC50 (read off the curve) [2] [nM],OD450 [3] [OD450],OD450 [4] [OD450],OD450 [5] [OD450],binding result (human CD22 domain5-7-His),EC50 (read off the curve) (human CD22 domain1-4-His) [nM],OD450 [6] [OD450],binding result [7],OD450 [8] [OD450],OD450 [9] [OD450],EC50 (read off the curve) (human CD22 domain5-7-His) [nM],binding result (human CD22 domain1-4-His)
B1,2.56,~0.08,2.55,1.47,0.34,no binding (tested: 100 nM),~0.2,0.1,no binding (tested: 100 nM),0.06,2.39,–,–
B2,2.88,~0.02,2.46,2.2,1.19,no binding (tested: 100 nM),~0.03,0.34,no binding (tested: 100 nM),0.15,2.51,–,–
B3,2.1,~0.04,2.06,1.45,0.51,no binding (tested: 100 nM),~0.05,0.27,no binding (tested: 100 nM),0.08,2.1,–,–
B4,1.92,~0.05,1.98,1.34,0.5,no binding (tested: 100 nM),~0.1,0.26,no binding (tested: 100 nM),0.21,1.91,–,–
B5,3.14,~0.04,2.68,1.95,0.68,no binding (tested: 100 nM),~0.04,0.19,no binding (tested: 100 nM),0.09,2.58,–,–
B6,2.71,~0.05,2.57,1.79,0.46,–,–,0.1,no binding (tested: 100 nM),0.06,2.52,~0.1,no binding (tested: 100 nM)
